Assay results taken from patent US20240207421A1, “NERVE TARGETING PEPTIDES AND METHODS OF USE” (ALUME BIOSCIENCES, INC., priority 2020, published 2024).

Biological target: Human Myelin Basic Protein (Homo sapiens, UniProt P02686)
Experiment: phage display, NGS count
Settings: not given

Sequence of Human Myelin Basic Protein (P02686 135-304 limits assumed): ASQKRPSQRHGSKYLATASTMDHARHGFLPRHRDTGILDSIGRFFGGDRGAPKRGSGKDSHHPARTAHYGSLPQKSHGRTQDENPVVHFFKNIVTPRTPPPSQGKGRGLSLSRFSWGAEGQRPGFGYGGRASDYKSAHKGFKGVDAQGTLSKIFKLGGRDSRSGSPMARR

Row | Count | Substance
1 | 7 | QPIDSTS (peptide)
2 | 8 | QQAHLQS (peptide)
3 | 6 | QTSIMSG (peptide)
4 | 6 | RGHPSQL (peptide)
5 | 6 | RTTDWWT (peptide)
6 | 6 | RVIPSTT (peptide)
7 | 6 | SAVLMPP (peptide)
8 | 6 | SEGLTLL (peptide)
9 | 7 | SEPGTVR (peptide)
10 | 6 | SGPFPLV (peptide)
11 | 6 | SIQTSAM (peptide)
12 | 7 | SISKIRT (peptide)
13 | 6 | SKLAGFP (peptide)
14 | 6 | SKPHASH (peptide)
15 | 7 | SLRSVGA (peptide)
16 | 6 | SLWQTLR (peptide)
17 | 6 | SLWTHRT (peptide)
18 | 6 | SPKPDIP (peptide)
19 | 8 | SPPRFIP (peptide)
20 | 6 | SRHLPPL (peptide)
21 | 9 | SRPTRVP (peptide)
22 | 7 | SSGMLSK (peptide)
23 | 6 | SSMRYNS (peptide)
24 | 9 | SVEYGQL (peptide)

Row | Count | Substance
25 | 6 | SVGLPTK (peptide)
26 | 6 | SYRSMAP (peptide)
27 | 7 | SYTLSRS (peptide)
28 | 6 | SYVTVFR (peptide)
29 | 9 | TGNLRLY (peptide)
30 | 6 | TPVLWLP (peptide)
31 | 6 | TRIPILL (peptide)
32 | 8 | TSPPLAH (peptide)
33 | 8 | TSRLVST (peptide)
34 | 6 | TTTQGHP (peptide)
35 | 6 | VLSPYHN (peptide)
36 | 6 | WDLPQNR (peptide)
37 | 7 | WPDLRIL (peptide)
38 | 7 | WSLPLLS (peptide)
39 | 7 | WSPRWPS (peptide)
40 | 6 | WTYHPTT (peptide)
41 | 6 | WVPDRSL (peptide)
42 | 8 | YATATPS (peptide)
43 | 7 | YLPPPLP (peptide)
44 | 6 | YPTYLSY (peptide)
45 | 6 | YSSRLND (peptide)
46 | 6 | YTASPRW (peptide)
47 | 6 | YVNRVKQ (peptide)

Continued, substance first:

Row | Substance | Count
48 | QKALPQT (peptide) | 6
49 | QNSYLSN (peptide) | 8
50 | QYWDILG (peptide) | 6
51 | RSRKHRP (peptide) | 6
52 | SGNLKKA (peptide) | 7
53 | SIRMTEI (peptide) | 7
54 | SLDHLRL (peptide) | 6
55 | SLKTTNP (peptide) | 6
56 | SNAERWR (peptide) | 9
57 | SNAHTLP (peptide) | 6
58 | SSFYVAY (peptide) | 6
59 | SWFESHN (peptide) | 8
60 | TGPSSAV (peptide) | 6
61 | TGSVSKQ (peptide) | 6
62 | THKHMMT (peptide) | 6
63 | TIRVAHT (peptide) | 6

Row | Substance | Count
64 | TLLTALT (peptide) | 7
65 | TPGRATL (peptide) | 6
66 | TPLYLSS (peptide) | 7
67 | TPQVMLK (peptide) | 8
68 | TPVRLNT (peptide) | 6
69 | TQMTMDS (peptide) | 10
70 | VAHQRVS (peptide) | 8
71 | VGTFWTR (peptide) | 6
72 | VIRTAAM (peptide) | 6
73 | VPTLRIP (peptide) | 8
74 | VRGTPNH (peptide) | 6
75 | VSFTLEP (peptide) | 7
76 | VVDMSTY (peptide) | 7
77 | WDLRHSK (peptide) | 6
78 | YPYVPIY (peptide) | 6

Biological target: Human Myelin PLP (human) (UniProt P60201)
Experiment: phage display, NGS count
Settings: not given

Sequence of Human Myelin PLP (human) (P60201 2-277 limits assumed): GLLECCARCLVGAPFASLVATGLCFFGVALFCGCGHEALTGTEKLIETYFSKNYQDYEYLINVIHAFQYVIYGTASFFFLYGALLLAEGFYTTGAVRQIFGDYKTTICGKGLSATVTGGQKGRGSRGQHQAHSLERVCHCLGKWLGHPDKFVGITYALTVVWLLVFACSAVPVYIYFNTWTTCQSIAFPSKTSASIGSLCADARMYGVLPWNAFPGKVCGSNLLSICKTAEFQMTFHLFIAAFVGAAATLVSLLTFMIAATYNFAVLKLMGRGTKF

Row | Count | Substance
79 | 27 | ALFQERK (peptide)
80 | 26 | ASLTLAL (peptide)
81 | 28 | AVVAMNK (peptide)
82 | 30 | DGSRDLV (peptide)
83 | 31 | EPSSFTF (peptide)
84 | 29 | FSLDRDG (peptide)
85 | 29 | FSTPTNV (peptide)
86 | 26 | GHLQSLF (peptide)
87 | 28 | GIPSSKN (peptide)
88 | 31 | GNVFQTS (peptide)
89 | 44 | GSAWKKH (peptide)
90 | 27 | HLHTRPT (peptide)
91 | 29 | IDRVRGL (peptide)
92 | 32 | IHHLESS (peptide)
93 | 31 | IIPPTSV (peptide)
94 | 27 | IRPTHNG (peptide)
95 | 27 | KGVIPAT (peptide)
96 | 26 | KPSASIY (peptide)
97 | 29 | LMQKPSI (peptide)
98 | 32 | LNGISAL (peptide)
99 | 26 | LPVKNLL (peptide)
100 | 26 | MKIMPMD (peptide)

Row | Count | Substance
101 | 37 | MPHAPVQ (peptide)
102 | 28 | NDASTVS (peptide)
103 | 33 | NIPSSIL (peptide)
104 | 28 | QLPRNNL (peptide)
105 | 33 | QPNMLKP (peptide)
106 | 31 | QRRSVIL (peptide)
107 | 32 | SALISTR (peptide)
108 | 32 | SGLHYAL (peptide)
109 | 28 | SVLPDKL (peptide)
110 | 26 | SVVYQNS (peptide)
111 | 31 | SWDVLEL (peptide)
112 | 29 | TKITPHR (peptide)
113 | 28 | TLWAQKT (peptide)
114 | 27 | TMPIKAM (peptide)
115 | 26 | TTTIADM (peptide)
116 | 28 | VGYRSAS (peptide)
117 | 28 | VRTSMNH (peptide)
118 | 26 | VTPNKAR (peptide)
119 | 27 | WSPHGYK (peptide)
120 | 31 | WSPHRSF (peptide)
121 | 30 | YSDTYKH (peptide)
122 | 29 | YSSRLTA (peptide)

More lines, now with the values behind:

Row | Substance | Count
123 | AHQSSVT (peptide) | 42
124 | AQASSAR (peptide) | 27
125 | ARFVPLT (peptide) | 30
126 | DRHEGHR (peptide) | 26
127 | EKSTTVA (peptide) | 30
128 | EVLYPNN (peptide) | 27
129 | FRIDKSM (peptide) | 26
130 | GKSYSQI (peptide) | 31
131 | GLWGPSL (peptide) | 26
132 | GPAAVII (peptide) | 29
133 | GWSTAIR (peptide) | 29
134 | HKAPLGT (peptide) | 29
135 | LHQTYRP (peptide) | 27
136 | LPHRLNP (peptide) | 27
137 | LPLRLHA (peptide) | 31
138 | LPSHASI (peptide) | 26
139 | NVFSATP (peptide) | 31
140 | RLQPEPT (peptide) | 33
141 | SAQSRSF (peptide) | 26
142 | SGVATYT (peptide) | 31

Row | Substance | Count
143 | SLNRGGA (peptide) | 28
144 | SLPGYRH (peptide) | 28
145 | SLPSLLP (peptide) | 26
146 | SVEKYSK (peptide) | 33
147 | SVMWMTP (peptide) | 29
148 | TDVEMVP (peptide) | 40
149 | TFPERLR (peptide) | 31
150 | TGISSTP (peptide) | 27
151 | TQPRYPS (peptide) | 28
152 | TRASYPQ (peptide) | 32
153 | VFPERRV (peptide) | 28
154 | VPGHISG (peptide) | 27
155 | VSASWMP (peptide) | 27
156 | VSSQEQA (peptide) | 34
157 | VTGPGTP (peptide) | 26
158 | WHYTPSM (peptide) | 26
159 | WNTADRL (peptide) | 34
160 | WSRISVD (peptide) | 26
161 | YSQAISA (peptide) | 27
162 | YTWTPSR (peptide) | 28

Test system: Human MPZ
Experiment: Phage display library screening (Example 2, Python script analysis), binding to Human MPZ
Settings: combined unique sequence count, Python/R script analysis
Protocol: Phage display library screens were used to identify peptides that bind to target proteins (including specific laminin trimers) that are expressed in human nerves, as described in Table 3. These screens were also carried out to identify peptides that could bind selectively to nerves versus muscle. Such peptides could therefore be useful for systemic in-vivo labeling of nerves during fluorescence assisted surgery. Specifically, m 13 phage libraries expressing 7 or 12 random amino acid peptides, or a cyclic peptide CX7C, on the N-terminus of the minor coat protein pIII (New England Biolabs; NEB) were processed through multiple rounds of selection for binding to target proteins expressed in nerves, or to excised human nerves, nerve extracts, or muscle, as described further below.
For screening against the specified target proteins in Table 1, including LN211, LN411, LN421, and LN521, the phage library was processed by up to 4 binding and wash cycles. For selection, phage libraries were incubated for up to 24 hours at 4° C. in 96 well plates that had been coated with one of the target proteins. Plates were then washed with PBS and phage were eluted using 0.2M glycine pH 2.0. Phage supernatants where then neutralized with Tris pH 9.0 prior to plating on TGI bacteria and LB agar plates. Colonies were counted to determine titer followed by DNA preparation of pools of phage and NextGen sequencing. After rounds of selection, phage were pooled and amplified for iterative selection. Phage that were bound at each round were sequenced. NextGen sequencing of pools after 2, 3 and 4 rounds of selection was used to isolate candidate sequences that were analyzed further to identify those that specifically bound each unique target protein.
Python Script Analysis: For all NEB sequence datasets, a python script was used to translate, trim, and filter the peptide sequences. The script translated the nucleotide sequences, translating amber codons as glutamine in peptide sequences, and then trimmed the end sequences that come from the vector. Secondly, the script combined the unique counts of trimmed peptides with identical sequences. […] Another python script was used to group peptides from different assays according to protein target (Myelin Protein Zero, Myelin Proteolipid Protein, Myelin Basic Protein, and Nidogen-2) and also combine the unique sequence counts for each peptide. An R script was written to merge the peptide sequences from different data files and determine peptides specific for each protein target but absent from different protein binding datasets. Peptide sequences were ranked by unique sequence count.

Sequence of Human MPZ (P25189 30-153 limits assumed): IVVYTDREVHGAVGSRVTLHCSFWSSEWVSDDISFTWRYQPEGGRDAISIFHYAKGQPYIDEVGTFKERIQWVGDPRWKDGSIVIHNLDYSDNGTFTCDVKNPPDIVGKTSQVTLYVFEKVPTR

Row | Substance | Count
163 | ADNVLRRALENI (Human MPZ-binding peptide) | 49
164 | ALPISYL (Human MPZ-binding peptide) | 42
165 | AMSNLSY (Human MPZ-binding peptide) | 45
166 | AWTMRAS (Human MPZ-binding peptide) | 39
167 | AYLEDWRSMSTR (Human MPZ-binding peptide) | 46
168 | CDIKDANSC (Human MPZ-binding peptide) | 38
